# Where two headings read alike, the source gives them in different places. Where no end group is shown, it is not given here. [ ]: non-standard residue; d: D form. pT = C[C@@H](OP(=O)(O)O)[C@H](N)C(=O)O; pS = N[C@@H](COP(=O)(O)O)C(=O)O
# T1: TOPBP1-BRCT0,1,2 segment, wild type (recombinant, fluorescence polarisation) ( (human and chicken TOPBP1 …))
# T1 chain: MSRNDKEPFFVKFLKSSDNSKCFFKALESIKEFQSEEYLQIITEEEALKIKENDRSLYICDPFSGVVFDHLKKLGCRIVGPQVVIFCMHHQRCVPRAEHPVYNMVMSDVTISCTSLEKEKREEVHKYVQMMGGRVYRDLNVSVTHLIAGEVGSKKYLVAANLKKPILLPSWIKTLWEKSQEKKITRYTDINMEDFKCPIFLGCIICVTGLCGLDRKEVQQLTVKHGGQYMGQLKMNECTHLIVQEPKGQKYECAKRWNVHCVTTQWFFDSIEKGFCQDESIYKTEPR
# T2: TOPBP1-BRCT4,5 segment ( (human and chicken TOPBP1 …))
# T2 chain: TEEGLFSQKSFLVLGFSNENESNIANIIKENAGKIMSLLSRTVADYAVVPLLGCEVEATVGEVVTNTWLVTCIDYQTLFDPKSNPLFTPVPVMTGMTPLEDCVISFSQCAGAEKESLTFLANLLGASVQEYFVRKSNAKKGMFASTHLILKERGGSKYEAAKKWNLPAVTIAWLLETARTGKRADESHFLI
# T3: TOPBP1-BRCT7,8 ( (human and chicken TOPBP1 …))
# T3 chain: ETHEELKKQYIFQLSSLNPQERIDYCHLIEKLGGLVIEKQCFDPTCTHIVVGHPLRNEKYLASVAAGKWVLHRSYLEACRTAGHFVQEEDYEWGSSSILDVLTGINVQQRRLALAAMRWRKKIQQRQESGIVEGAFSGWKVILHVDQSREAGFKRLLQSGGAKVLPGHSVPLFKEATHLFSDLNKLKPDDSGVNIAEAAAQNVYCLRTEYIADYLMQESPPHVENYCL
# T4: Rad4-BRCT1,2 segment, wild type (recombinant, fluorescence polarisation) (S. pombe, UniProt P32372 1-186)
# T4 chain: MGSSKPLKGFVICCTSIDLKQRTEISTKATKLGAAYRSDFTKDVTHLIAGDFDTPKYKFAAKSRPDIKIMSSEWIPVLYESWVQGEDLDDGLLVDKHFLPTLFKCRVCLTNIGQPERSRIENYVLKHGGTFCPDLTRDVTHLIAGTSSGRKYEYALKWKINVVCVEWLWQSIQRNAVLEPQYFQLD
# T5: TOPBP1-BRCT0,1,2 K250E (BRCT2 phosphate-binding site mutant) ( (human and chicken TOPBP1 …))
# T5 chain: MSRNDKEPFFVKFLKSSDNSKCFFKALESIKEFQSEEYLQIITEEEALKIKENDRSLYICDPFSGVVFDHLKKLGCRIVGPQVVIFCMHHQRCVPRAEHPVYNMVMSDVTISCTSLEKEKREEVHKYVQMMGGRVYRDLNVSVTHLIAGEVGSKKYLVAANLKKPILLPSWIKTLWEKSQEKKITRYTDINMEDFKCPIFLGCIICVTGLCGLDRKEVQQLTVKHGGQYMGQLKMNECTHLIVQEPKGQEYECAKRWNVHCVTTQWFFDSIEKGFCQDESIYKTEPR
# T6: S. pombe Nbs1 (S. pombe, UniProt O43070 1-613)
# T6 chain: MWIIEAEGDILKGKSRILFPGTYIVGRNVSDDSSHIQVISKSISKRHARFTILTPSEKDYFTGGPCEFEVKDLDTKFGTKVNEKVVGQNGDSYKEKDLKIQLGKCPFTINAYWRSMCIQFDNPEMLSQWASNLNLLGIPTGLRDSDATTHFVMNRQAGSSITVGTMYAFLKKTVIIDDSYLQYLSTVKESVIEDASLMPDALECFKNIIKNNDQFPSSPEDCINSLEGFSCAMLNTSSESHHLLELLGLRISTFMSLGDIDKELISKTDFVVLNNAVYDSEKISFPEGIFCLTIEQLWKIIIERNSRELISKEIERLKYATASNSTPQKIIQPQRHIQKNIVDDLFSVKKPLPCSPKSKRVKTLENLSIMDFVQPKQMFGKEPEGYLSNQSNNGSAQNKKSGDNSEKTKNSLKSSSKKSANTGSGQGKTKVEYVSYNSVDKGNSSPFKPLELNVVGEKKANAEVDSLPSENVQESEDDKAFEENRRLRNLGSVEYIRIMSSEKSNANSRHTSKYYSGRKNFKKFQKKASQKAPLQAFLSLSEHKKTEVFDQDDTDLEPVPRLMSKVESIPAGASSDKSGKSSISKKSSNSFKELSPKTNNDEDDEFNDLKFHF
# Columns and labels:
# Test in all cases: FP
# [1] = molecular target: T1, TOPBP1-BRCT0,1,2 segment, wild type …
# TOPBP1-BRCT4,5 segment = molecular target: T2, TOPBP1-BRCT4,5 segment
# TOPBP1-BRCT7,8 = molecular target: T3, TOPBP1-BRCT7,8
# [2] = molecular target: T4, Rad4-BRCT1,2 segment, wild type …
# [3] = molecular target: T5, TOPBP1-BRCT0,1,2 K250E (BRCT2 …)
# [4] = molecular target: T1, TOPBP1-BRCT0,1,2 segment, wild type …
# S. pombe Nbs1 = molecular target: T6, S. pombe Nbs1
binder,measurement,setting,value
fluorescein-GYGDIGVVEE[pS]PEKGDEI [Treslin pS1001 fluorescein-labelled phosphopeptide],Kd,[1],600 nM
fluorescein-GYGLTKSVAE[pT]PVHKQIS (also: phosphothreonine at 969 (T5 or T11)) [Treslin pT969 fluorescein-labelled phosphopeptide],Kd,[1],940 nM
fluorescein-GYGDTDFVPP[pS]PEEIISA (also: phosphoserine at 304 (S11 or S17)) [BLM pS304 fluorescein-labelled phosphopeptide],Kd,"TOPBP1-BRCT4,5 segment",3460 nM
fluorescein-GYGEDESIYF[pT]PELYDPE [FANCJ pT1133 fluorescein-labelled phosphopeptide],Kd,"TOPBP1-BRCT7,8",140 nM
fluorescein-GYGGVMTVPN[pT]PQKPNLQ (also: phosphothreonine at 113 (T7 or T11)) [Mdb1 pT113 fluorescein-labelled phosphopeptide],Kd,[2],1310 nM
fluorescein-GYGGPVLVKD[pT]PEDKYGI [RHNO1 pT202 fluorescein-labelled phosphopeptide],Kd,[3],< 200 nM
same,Kd,[4],< 200 nM
"fluorescein-GYGVEGDHS[pS]D[pT]EEEVVS [Mdb1 pS216, pT218 fluorescein-labelled phosphopeptide (SDT site)]",Kd,S. pombe Nbs1,820 nM

# Reference: article PMC6175577 (2018)
